Measurements published in IntAct's records for PubMed 16407074.

B1: Mortality factor 4-like protein 1 (Homo sapiens), Q9UBU8-2 (parent)
chain: MAPKQDPKPKFQEGERVLCFHGPLLYEAKCVKVAIKDKQVKYFIHYSGWNKNWDEWVPESRVLKYVDTNLQKQRELQKANQEQYAEGKMRGAAPGKKTSGLQQKNVEVKTKKNKQKTPGNGDGGSTSETPQPPRKKRARVDPTVENEETFMNRVEVKVKIPEELKPWLVDDWDLITRQKQLFYLPAKKNVDSILEDYANYKKSRGNTDNKEYAVNEVVAGIKEYFNVMLGTQLLYKFERPQYAEILADHPDAPMSQVYGAPHLLRLFVRIGAMLAYTPLDEKSLALLLNYLHDFLKYLAKNSATLFSASDYEVAPPEYHRKAV

Variants of: B1
Details: with mrgbp_human MRGBP

Row | Variant | effect of a mutation on the interaction
1 | L291A | disrupting interaction strength

Variants of: B1
Details: with mr1l1_human MRFAP1L1, Q96HT8
mr1l1_human MRFAP1L1, Q96HT8, sequence (Q96HT8 whole entry): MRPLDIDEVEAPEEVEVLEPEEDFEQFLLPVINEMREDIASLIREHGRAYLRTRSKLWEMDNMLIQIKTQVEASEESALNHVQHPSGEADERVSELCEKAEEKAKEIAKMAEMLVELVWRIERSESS

Row | Variant | effect of a mutation on the interaction
2 | V169E | disrupting interaction
